US20210147523A1 (TEIJIN PHARMA, published 2021)

Assays:
human SPNS2 [1] = target: T1, human SPNS2 (human, UniProt Q8IVW8 1-549); assay: Cell ELISA
T1 construct: S1P transporter; in Cell ELISA and S1P assays on Flp-in 293 cells that also express human SphK1; also called Spinster homolog 2; native type
T1 sequence: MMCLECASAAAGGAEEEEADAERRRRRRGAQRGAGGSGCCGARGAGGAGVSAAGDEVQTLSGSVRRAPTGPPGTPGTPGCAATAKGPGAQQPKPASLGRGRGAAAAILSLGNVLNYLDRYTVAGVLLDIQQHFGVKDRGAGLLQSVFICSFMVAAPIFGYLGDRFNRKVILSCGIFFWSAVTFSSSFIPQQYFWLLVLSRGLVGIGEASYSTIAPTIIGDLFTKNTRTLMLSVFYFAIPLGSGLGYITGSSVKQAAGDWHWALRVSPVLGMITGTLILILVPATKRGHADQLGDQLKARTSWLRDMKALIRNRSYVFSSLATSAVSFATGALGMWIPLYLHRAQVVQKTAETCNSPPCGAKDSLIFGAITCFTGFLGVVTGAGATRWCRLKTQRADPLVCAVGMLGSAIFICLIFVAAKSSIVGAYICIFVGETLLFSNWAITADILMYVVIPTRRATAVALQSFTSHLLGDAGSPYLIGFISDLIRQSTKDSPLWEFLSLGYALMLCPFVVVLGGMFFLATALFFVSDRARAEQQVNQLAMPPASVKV
Protocol: (§1) Human and mouse SPNS2 and human SphK1 double stable expression Flp-in 293 cells were added to a poly D lysine coat 96-well plate (Corning, 356461) in a density of 1×10⁵ cells/well and was cultivated overnight, and then the culture medium was removed. An anti-SPNS2 antibody solution was adjusted into 20 μg/mL using 0.2% FBS/3% BSA/PBS, and 0.2% FBS/3% BSA/PBS (60 μL) was added to the antibody diluted solution (20 μL) to prepare seven-step diluted solutions by four fold serial dilution. Each diluted solution of the anti-SPNS2 antibody was added in a volume of 30 μL/well, and reacted for about one hour at room temperature. The antibody solution was removed, and the residue was washed with PBS containing 0.05% Tween 20 (PBS-T) two times, and fixed for about ten minutes at room temperature using 10% buffered formalin (Mildform (Trade mark) 10NM, Wako). After washing with PBS-T one time, a 5000-fold diluted solution of anti-rat IgG antibody HRP conjugate (Southern Biotech, 3030-05) in 0.2% FBS/3% BSA/PBS was added to each well (30 μL), and reacted for about one hour at room temperature. After washing with PBS-T four times, a substrate (TMB; 3, 3′, 5, 5′-tetramethylbenzidin) was added to each well (100 μL) to initiate the reaction. After 20 minutes, 2N sulfuric acid was added to each well (100 μL), and absorbance at 450 nm and 550 nm was measured. […] Each antibody bound to human SPNS2 and mouse SPNS2.

mouse SPNS2 [2] = target: T2, mouse SPNS2 (mouse, UniProt Q91VM4 1-549); assay: Cell ELISA
T2 construct: on Flp-in 293 cells that also express human SphK1
T2 sequence: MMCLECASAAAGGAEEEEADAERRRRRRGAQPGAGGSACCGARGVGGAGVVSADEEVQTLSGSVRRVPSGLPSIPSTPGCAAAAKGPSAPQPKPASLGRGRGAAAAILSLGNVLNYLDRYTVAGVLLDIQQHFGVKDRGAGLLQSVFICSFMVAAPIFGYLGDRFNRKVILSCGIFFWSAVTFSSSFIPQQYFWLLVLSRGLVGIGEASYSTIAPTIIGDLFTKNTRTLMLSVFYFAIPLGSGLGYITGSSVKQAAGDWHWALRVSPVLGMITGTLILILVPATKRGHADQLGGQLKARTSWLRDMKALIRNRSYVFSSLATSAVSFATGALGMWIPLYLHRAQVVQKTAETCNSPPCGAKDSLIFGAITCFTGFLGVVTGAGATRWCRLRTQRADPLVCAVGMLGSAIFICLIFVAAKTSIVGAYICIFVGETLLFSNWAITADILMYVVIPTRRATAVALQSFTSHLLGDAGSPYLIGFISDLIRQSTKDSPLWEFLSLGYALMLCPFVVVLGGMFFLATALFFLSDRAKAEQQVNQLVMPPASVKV
Protocol: as §1

human SPNS2 W259A mutant = target: T3, human SPNS2 W259A mutant (human, UniProt Q8IVW8 1-549); assay: flow cytometry
T3 sequence: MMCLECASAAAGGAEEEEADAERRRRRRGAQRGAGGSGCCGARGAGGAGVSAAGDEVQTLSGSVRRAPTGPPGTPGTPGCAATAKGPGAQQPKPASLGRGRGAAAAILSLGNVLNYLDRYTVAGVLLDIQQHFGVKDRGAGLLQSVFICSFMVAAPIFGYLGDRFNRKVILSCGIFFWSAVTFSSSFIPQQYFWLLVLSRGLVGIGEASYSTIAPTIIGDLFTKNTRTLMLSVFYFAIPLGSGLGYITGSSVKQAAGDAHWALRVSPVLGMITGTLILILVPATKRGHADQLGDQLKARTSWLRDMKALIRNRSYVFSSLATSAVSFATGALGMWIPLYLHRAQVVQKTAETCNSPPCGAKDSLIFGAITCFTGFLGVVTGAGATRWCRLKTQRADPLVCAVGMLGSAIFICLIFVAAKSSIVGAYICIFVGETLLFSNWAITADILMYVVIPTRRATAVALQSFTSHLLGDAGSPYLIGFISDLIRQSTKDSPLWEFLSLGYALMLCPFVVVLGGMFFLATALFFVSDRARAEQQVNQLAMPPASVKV

human SPNS2 [3] = target: T1, human SPNS2; assay: cell-based or functional assay
mouse SPNS2 [4] = target: T2, mouse SPNS2; assay: cell-based or functional assay
human SPNS2 [5] = target: T1, human SPNS2; assay: cell-based or functional assay; remark: listed apart in the source
mouse SPNS2 [6] = target: T2, mouse SPNS2; assay: cell-based or functional assay; remark: listed apart in the source

| Binder | Emax (human SPNS2 [1]) [absorbance] | pEC50 (human SPNS2 [1]) | Emax (mouse SPNS2 [2]) [absorbance] | pEC50 (mouse SPNS2 [2]) | binding ratio vs native type (human SPNS2 W259A mutant) [ratio] | pIC50, S1P transport inhibition (S1PR3 Ca2+ FLIPR bioassay) (human SPNS2 [3]) | pIC50, S1P transport inhibition (S1PR3 Ca2+ FLIPR bioassay) (mouse SPNS2 [4]) | pIC50, S1P transport inhibition (LC-MS/MS of S1P) (human SPNS2 [5]) | pIC50, S1P transport inhibition (LC-MS/MS of S1P) (mouse SPNS2 [6]) |
| --- | --- | --- | --- | --- | --- | --- | --- | --- | --- |
| 37-0511F (antibody, IgG2b, V domains shown) VH: EVHLQQSGAALVRPRASVKLSCKVSGDSISRYYVHFVKQRPGQGLEWIGRIDPEDDTTKYSEKFKNRATLTADASSDTASLILSGLTSDDTATYFCSTLTGLDYWGQGVMVTVSS VL: DIQMTQSPPVLSTSVGDRVTLRCKPSQNVHSKLDWYQQKHGEAPKLLIYYTHNLQTGIPSRFSGSGSGTDYTLTISSLQPEDVATYYCFQYYSGWTFGGGTKLEMKR | 1.35 | 8.2 pEC50 (M) | 1.29 | 8.01 pEC50 (M) | < 0.5 | 7.3 pIC50 (M) | 7.8 pIC50 (M) | 7.7 pIC50 (M) | 7.8 pIC50 (M) |
| 53-0707E (antibody, IgG2b, V domains shown) VH: EVQLQQSGAELVRPRTSVKLSCKVSGDSITRYYVHFVKQRPGQGLEWIGRIDPEDDTTKYSEKFKKKATLTADASSNTAYLIFSGLTSEDTATYFCSTLTGLDYWGQGVMVTVSS VL: DIQMTQSPPVLSTSVGDRVTLRCKASQNVHSKLDWYQQKHGEAPKLLIYYTHNLQTGIPSRFSGSGSGTDYTLTISSLQPEDVATYYCFQYYSGWTFGGGTKLEMKR | 1.62 | 7.87 pEC50 (M) | 1.43 | 7.82 pEC50 (M) | < 0.5 | 7.1 pIC50 (M) | 7.6 pIC50 (M) | 7.3 pIC50 (M) | 7.6 pIC50 (M) |
| 64-0807A (antibody, IgG2b, V domains shown) VH: EVQVVESGGGLVQPGRSMKLSCAALGFTFRDYYMAWVRQTPTKGLEWVAAISTGGGNTYYRDSVKGRFTISRDNAKSTLYLQMDSLRSDDTATYYCARNPYGNYFDYWGQGVMVTVSS VL: QFVLSQPNSVSTNLGSTVKLSCKRSTGNIGSNYVHWYQRHEGRSPTTLIYRDDKRPNGVPDRFSGSIDRSSNSALLTINNVQTEDEADYFCQSYSGGMYLFGGGTKLTVL | 1.83 | 8.07 pEC50 (M) | 1.88 | 7.83 pEC50 (M) | < 0.5 | 7.4 pIC50 (M) | 7.6 pIC50 (M) | 7.5 pIC50 (M) | 7.7 pIC50 (M) |
| 65-0810G (antibody, IgG2b, V domains shown) VH: EVHLVESGGGLVQPGRSMKLSCTASGFTFNNYYMAWVRQAPTKGLEWVASISTGGGYTYYRDSVKGRFTISRDNTGNTLYLQMDSLRSEDTATYYCARCWELPYWGQGVMVTVSS VL: QFVLTQPNSVSTNLGSTVKLSCRRSSGNIGNNYVNWYRQHEGRSPTTMIYRDDTRPDGVPNRFSGSIDRSSNSALLTINNVRPEDEAYYFCQSYSGSIYIFGGGTKLTVL | 1.7 | 8.36 pEC50 (M) | 1.54 | 8.15 pEC50 (M) | < 0.5 | 7.2 pIC50 (M) | 7.6 pIC50 (M) | 7.4 pIC50 (M) | 7.8 pIC50 (M) |
| 83-1110B (antibody, IgG2b, V domains shown) VH: EVQLQQSGPEFVRPGTSVKFSCKVSGGSITSYFIHFVKQRPGQGLEWIGKIDPEDDSTKYGEKFKNKATLTADTSSNTAFLKLSSLTSEDTAIYFCTTLTGLDYWGQGVMVTVSS VL: DIQMTQSPPVLSAAVGDRVTLSCKASRSLNKNLDWYQQKHGETPKLLIYHTHNLQTGIPSRFSGSGSDTDYTLTISSLQTEDVATYYCYQYHSGWTFGGGTRLELRR | 1.6 | 8.32 pEC50 (M) | 1.59 | 8.17 pEC50 (M) | < 0.5 | 7.6 pIC50 (M) | 8 pIC50 (M) | 7.9 pIC50 (M) | 8.1 pIC50 (M) |
| 94-1311E (antibody, V domains shown) VH: EVQLQQSGAGLVRPRTSVRLSCKISGDSITAYYVHFVKQRPGQGLEWIGRIDPEDDSTKYSEKFKNKATLTADVSSSTAYLILSSLTSDDSATYFCSTLTGLDYWGQGVMVTVSS VL: DIQMTQSPPVLSASVGDRVTLSCKASQSVHNKLDWYQQKHGEAPKLLIYYTHNLQTGIPSRFSGSGSGSDYTLTISSLRAEDVATYYCFQYYSGWTFGGGTKLEMKR | 1.61 | 8.34 pEC50 (M) | 1.52 | 8.2 pEC50 (M) | < 0.5 | 7.8 pIC50 (M) | 8.1 pIC50 (M) | 7.9 pIC50 (M) | 8.2 pIC50 (M) |
| 33-0503E (antibody, IgG2b, V domains shown) VH: EVQLVESGGGLVRPGGSMKLSCGASGFIFDNYYMTWVRQAPTKGLEWVASISSSGGNTYYRDSVRGRFTISRDNAGNTLSLQMGSLRAEDTATYHCAKEGYRGRYFDYWGQGVMVTVSS VL: QVVLTQPNSVSTNLGSTVKLSCKRTTGNIGSNYVNWYQQHEGRSPTTMIYRDDERPDGVPDRFSGSIDRSSNSALLTINNVQTEDEAEYFCQSYSSGIIFGGGTKLTVL | 2.03 | 8.12 pEC50 (M) | 2.2 | 7.66 pEC50 (M) | < 0.5 | 7 pIC50 (M) | 7.5 pIC50 (M) | 7.4 pIC50 (M) | 7.7 pIC50 (M) |
| 49-0703G (antibody, IgG2b, V domains shown) VH: EVQLVESGGGLVQPGRSMKLSCAASGFTFSNHYMAWVRQAPTKGLEWVASISTGGGNTYYRDSVKGRFTISRDNAKSTLYLQMDSLRSEDTATYYCARQDYSNYMGGFAYWGQGTLVTVSS VL: QFVLTQPNSVSTNLGSTVKLSCKRSTGNIGNNYVNWYQQYEGRSPTTMIYRDDERPDGVPDRFSGSIDRSSNSALLTINNVQTEDEADYFCQSFSNGMFIFAGGTQLTVL | 1.77 | 8.42 pEC50 (M) | 1.67 | 8.09 pEC50 (M) | < 0.5 | 7 pIC50 (M) | 7.3 pIC50 (M) | 7.4 pIC50 (M) | 7.6 pIC50 (M) |
